Changes are numbered by the printed parent chain. Numbers in names are those of the source.
T1: purified recombinant IFNAR-1 extracellular fragment (human, UniProt P17181 28-436)
T1 construct: extracellular domain; also called soluble IFNAR-1; soluble IFNAR
T1 sequence (looked up): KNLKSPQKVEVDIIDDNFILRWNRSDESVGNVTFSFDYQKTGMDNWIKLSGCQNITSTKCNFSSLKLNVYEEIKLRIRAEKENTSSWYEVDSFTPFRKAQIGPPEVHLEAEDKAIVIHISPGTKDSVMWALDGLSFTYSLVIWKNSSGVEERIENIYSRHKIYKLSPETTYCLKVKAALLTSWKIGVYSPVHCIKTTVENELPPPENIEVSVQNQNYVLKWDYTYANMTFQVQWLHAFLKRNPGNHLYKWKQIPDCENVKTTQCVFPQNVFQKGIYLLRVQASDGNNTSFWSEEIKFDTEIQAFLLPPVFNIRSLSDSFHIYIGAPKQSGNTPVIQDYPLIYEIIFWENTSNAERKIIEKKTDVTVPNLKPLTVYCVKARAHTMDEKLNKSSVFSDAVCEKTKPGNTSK

T2: IFNAR-1 on human cells (human, UniProt P17181 28-557)
T2 sequence (looked up): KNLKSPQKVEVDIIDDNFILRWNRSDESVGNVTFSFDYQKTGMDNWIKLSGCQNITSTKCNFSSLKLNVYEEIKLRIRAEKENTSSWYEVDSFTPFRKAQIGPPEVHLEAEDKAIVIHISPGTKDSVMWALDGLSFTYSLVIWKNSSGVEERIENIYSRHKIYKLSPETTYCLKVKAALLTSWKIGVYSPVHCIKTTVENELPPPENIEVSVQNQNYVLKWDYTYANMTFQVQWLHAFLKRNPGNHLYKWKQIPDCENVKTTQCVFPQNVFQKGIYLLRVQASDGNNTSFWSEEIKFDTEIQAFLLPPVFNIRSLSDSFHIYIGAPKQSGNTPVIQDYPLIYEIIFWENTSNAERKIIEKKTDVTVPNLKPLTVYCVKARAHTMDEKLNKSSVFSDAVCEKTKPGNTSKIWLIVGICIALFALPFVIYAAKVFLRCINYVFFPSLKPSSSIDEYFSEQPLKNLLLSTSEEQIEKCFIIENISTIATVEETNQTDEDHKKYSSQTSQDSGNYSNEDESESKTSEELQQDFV

B1: DI M3 heavy chain with K1 light chain (antibody, human IgG4, V domains shown)
VH: EVQLLESGGGLVQPGGSLRLSCAASGFTMSTSGMGIGWIRQTPGKGLEWVAHIWWDDDKYYNPSLKSRFTISKDTSKNTLYLQMNSLRAEDTAVYYCARNYYPYDAWFDYWGQGTLVTVS
VL: DIQMTQSPSSLSASVGDRVTITCSASSSINSNHLHWYQQKPGKAPKLLIYRTSILASGVPSRFSGSGSGTSFTLTISSLQPEDFATYYCQQGSNIPFTFGQGTKVEIKR
notes: also called DI M3 K1
B2: M3 heavy chain with DI K1 light chain (antibody, human IgG4, V domains shown)
VH: B1 VH with A24F, M29L, I39V, T42A, K73R, L80V
VL: B1 VL with V19A, Q38L, L47A, V59I, S71D, F84T
notes: also called M3 DI K1
B3: M3 heavy chain with DI K1-C light chain (antibody, V domains shown)
VH: B1 VH with A24F, M29L, I39V, T42A, K73R, L80V
VL: B1 VL with S27T, Q38L, L47A, V59I, S71D, F84T
notes: also called M3 DI K1-C
B4: M3-B heavy chain with DI K1-C light chain (antibody, V domains shown)
VH: B1 VH with A24F, M29L, I39V, T42A, S67A, K73R, L80V
VL: B1 VL with S27T, Q38L, L47A, V59I, S71D, F84T
notes: also called M3-B DI K1-C
B5: M3-B heavy chain with DI K1 light chain (antibody, V domains shown)
VH: B1 VH with A24F, M29L, I39V, T42A, S67A, K73R, L80V
VL: B1 VL with V19A, Q38L, L47A, V59I, S71D, F84T
notes: also called M3-B DI K1
B6: DI M3-B heavy chain with K1 light chain (antibody, V domains shown)
VH: B1 VH with S67A, K73R
VL: B1 VL
notes: also called DI M3-B K1
B7: DI M3-B heavy chain with DI K1 light chain (antibody, V domains shown)
VH: B1 VH with S67A, K73R
VL: B1 VL with V19A, Q38L, L47A, V59I, S71D, F84T
notes: also called DI M3-B DI K1
B8: DI M3-B heavy chain with K1-C light chain (Example 3) (antibody, V domains shown)
VH: B1 VH with S67A, K73R
VL: B1 VL with S27T
notes: also called DIM3-B K1-C; DI M3-B K1-C
B9: M3-B heavy chain with K1-C light chain (antibody, V domains shown)
VH: B1 VH with A24F, M29L, I39V, T42A, S67A, K73R, L80V
VL: B1 VL with S27T
notes: also called M3-B K1-C
B10: M3 heavy chain with K1-C light chain (antibody, human IgG4, V domains shown)
VH: B1 VH with A24F, M29L, I39V, T42A, K73R, L80V
VL: B1 VL with S27T
notes: also called M3 K1-C
B11: DI M3-B heavy chain with DI K1-C light chain (antibody, V domains shown)
VH: B1 VH with S67A, K73R
VL: B1 VL with S27T, Q38L, L47A, V59I, S71D, F84T
notes: also called DI M3-B DI K1-C
B12: DI M3 heavy chain with DI K1 light chain (antibody, human IgG4, V domains shown)
VH: B1 VH
VL: B1 VL with V19A, Q38L, L47A, V59I, S71D, F84T
notes: also called DI M3 DI K1
B13: M3-B heavy chain with K1 light chain (antibody, human IgG4, V domains shown)
VH: B1 VH with A24F, M29L, I39V, T42A, S67A, K73R, L80V
VL: B1 VL
notes: also called M3-B K1
B14: DI M3 heavy chain with K1-C light chain (antibody, V domains shown)
VH: B1 VH
VL: B1 VL with S27T
notes: also called DI M3 K1-C
B15: DI M3 heavy chain with DI K1-C light chain (antibody, V domains shown)
VH: B1 VH
VL: B1 VL with S27T, Q38L, L47A, V59I, S71D, F84T
notes: also called DI M3 DI K1-C
B16: mouse-human chimeric antibody with 64G12 variable regions and human IgG4 kappa constant regions (antibody, V domains shown)
VH: QVTLKESGPGILKPSQTLSLTCSFSGFSLSTSGMGIGWIRQPSGKGLEWLAHIWWDDDKYYNPSLKSQLTISRDTSTNQVFLNITSVDTVDTATYYCGRNYYPYDAWFDYWGQGTLVTVS
VL: EIVLTQSPTTMAASPGEKITITCSASSSINSNHLHWYQQKPGFSPKVLIYRTSILASGVPTRFSGSGSGTSYSLTIGTMEAEDVATYYCQQGSNIPFTFGSGTELEIKR
notes: also called Chimeric IgG4; human IgG4 chimeric antibody
B17: H2K6 (antibody, V domains shown)
VH: QVTLKESGPALVKPTQTLTLTCTFSGFSLSTSGMGIGWIRQPPGKALEWLAHIWWDDDKYYNPSLKSRLTISRDTSKNQVVLTMTNMDPVDTATYYCGRNYYPYDAWFDYWGQGTLVTVS
VL: EIVLTQSPDFQSVTPKEKVTITCSASSSINSNHLHWYQQKPGQSPKLLIYRTSILASGVPSRFSGSGSGTSFTLTINSLEAEDVATYYCQQGSNIPFTFGQGTKLEIKR
notes: Full-length antibody with human IgG constant regions; also called heavy chain H2 with light chain K6
B18: H2K1 (antibody, V domains shown)
VH: B17 VH
VL: B1 VL
notes: Full-length antibody with human IgG constant regions; also called heavy chain H2 with light chain K1
B19: M3-11 (X = T) heavy chain with K1 light chain (antibody, V domains shown)
VH: B1 VH with A24F, M29L, I39V, T42A, K73R, L80V, Y110T
VL: DIQMTQSPSSLSASVGDRVTITCSASSSINSNHLHWYQQKPGKAPKLLIYRTSILASGVPSRFSGSGSGTSFTLTISSLQPEDFATYYCQQGSNIPFTFGQGTKVEIK
notes: Position counted within VH CDR3; also called M3-11 T
B20: M3-11 (X = V) heavy chain with K1 light chain (antibody, V domains shown)
VH: B1 VH with A24F, M29L, I39V, T42A, K73R, L80V, Y110V
VL: B19 VL
notes: Position counted within VH CDR3; also called M3-11 V
B21: M3-11 (X = W) heavy chain with K1 light chain (antibody, V domains shown)
VH: B1 VH with A24F, M29L, I39V, T42A, K73R, L80V, Y110W
VL: B19 VL
notes: Position counted within VH CDR3; also called M3-11 W
B22: DI M3-B K1C (h IgG1) (antibody, V domains shown)
VH: B1 VH with S67A, K73R
VL: B1 VL with S27T

The binders below were run against T1, purified recombinant IFNAR-1 … (assay: Biacore, antibody on immobilized soluble IFNAR-1, maximal response, mean of four).
Procedure: Additional combination variants heavy chain DI M3-B and light chain DI K1-C were also made. These combination variants were also tested for binding to IFNAR-1. […] Binding analysis was done by Biacore, with the antibody bound to immobilized soluble IFNAR-1. Maximal response was determined at two concentrations and values shown are mean of four determinations.

Row | % response relative to H3K1 | Binder
1 | 149% | B1
2 | 25% | B2
3 | 17% | B3
4 | 14% | B4
5 | 17% | B5
6 | 122% | B6
7 | 11% | B7
8 | 100% | B8
9 | 156% | B9
10 | 100% | B10
11 | 9% | B11
12 | 8% | B12
13 | 117% | B13
14 | 96% | B14
15 | 4% | B15

The binders below were run against T1, purified recombinant IFNAR-1 … (assay: Biacore, antibody captured on anti-human IgG Fc, soluble IFNAR 25-400 nM, flow cell 2-1 low density capture).

Row | Kd | koff | kon | Binder
16 | 0.502 nM | 2.82e-06 s⁻¹ | 5610 M⁻¹ s⁻¹ | B8
17 | 7.47 nM | 4.1e-05 s⁻¹ | 5490 M⁻¹ s⁻¹ | B9

What follows are binders tested against T1, purified recombinant IFNAR-1 … (assay: Biacore, antibody captured on anti-human IgG Fc, soluble IFNAR 25-400 nM, flow cell 4-3 higher density capture).

Row | Kd | koff | kon | Binder
18 | 3.53 nM | 1.64e-05 s⁻¹ | 4640 M⁻¹ s⁻¹ | B8
19 | 7.45 nM | 4.06e-05 s⁻¹ | 5460 M⁻¹ s⁻¹ | B9

The binders below were run against T1, purified recombinant IFNAR-1 … (assay: Biacore, IFNAR-1 extracellular fragment coupled to CM5 chip, antibody 1.75-80 nM).
Procedure: Antibodies from clones 64G12, H2K6, H2K1, H3K6, and H3K1 were assayed by Biacore analysis (Biacore AB, Uppsala, Sweden) to determine binding kinetics. Purified recombinant IFNAR-1 extracellular fragment was coupled to the CM5 sensor chip @ 600 RU. Binding was measured by adding antibody at concentrations from 1.75-80 nM at a flow rate of 20 ul/min. The binding curves were fit to a Langmuir binding model using BIAevaluation software (Biacore AB, Uppsala, Sweden).

Row | Kd | Binder
20 | 3.6 nM | B16
21 | 1.3 nM | B17
22 | 0.8 nM | B18

Each binder was assayed against T1, purified recombinant IFNAR-1 … (assay: Biacore, maximal association on IFNAR-1 relative to M3K1).
Description: Pools 4 and 11 were selected for further study and the individual antibodies in each pool were produced and expressed separately. The sequences of these individual antibodies were as shown in SEQ ID NO:12 of FIG. 1F and SEQ ID NO: 13 of FIG. 1G. The data is presented as maximal association relative to M3K1. […]

Row | % activity relative to M3K1 | Binder
23 | 82% | B19
24 | 108% | B20
25 | 70% | B21

Each binder was assayed against T1, purified recombinant IFNAR-1 … (assay: Biacore, response on IFNAR-1 (flow cell 2) divided by response on anti-human IgG Fc (flow cell 4)).
Description: A series of antibodies were constructed with reduced numbers of potential T-cell epitopes. These included heavy chain variants M3-A and M3-B in which residues were changed in CDR regions and DI M3 in which framework residues were altered. De-immunized light chains were also constructed termed K1-C, K1-D, K1-E and DI K1. The antibodies were expressed and purified before analysis by Biacore. A Biacore chip was used with IFNAR-1 coated on Flow cell 2 at 690 RU and anti-human IgG Fc on flow cell 4 at 5000 RU. Binding of the antibody to IFNAR-1 relative to anti-human IgG Fc was determined by the ratio of response at flow cell 2 divided by flow cell 4 (Fc2/Fc4).

Row | % activity relative to H3K1 | Fc2/Fc4 | Binder
26 | 137% | 0.41 | B1
27 | 57% | 0.17 | B2
28 | 97% | 0.29 | B10
29 | 20% | 0.06 | B12
30 | 103% | 0.31 | B13

The binders below were run against T2, IFNAR-1 on human cells (assay: cell-based or functional assay).

Row | Cell Proliferation (Daudi) IC50, cells cultured with interferon α2b | ISRE-RG Reporter (U937) IC50, interferon α2b | Binder
31 | 10 nM | 4.6 nM | B22

— patent US20050208041A1 (Bristol-Myers Squibb, published 2005)
